According to article PMC4533228:

Molecular target: homotypic K48-polyUb cyB1-NT^K64 (GST-bound single-lysine N-terminal fragment of cyclin B1 ubiquitinated with Ub^K48) (UniProt P0CG48)
Assay: pull-down; resin-bound polyUb conjugates (≈20 nM) incubated with purified 26S proteasomes (10 nM) at 4°C, washed; bound proteasomes measured by cleavage of suc-LLVY-AMC at 37°C (one panel also with 300 nM hHR23A)

homotypic K48-polyUb cyB1-NT^K64 (GST-bound single-lysine N-terminal fragment of cyclin B1 ubiquitinated with Ub^K48), sequence (P0CG48 whole entry, looked up, the tested form may be a part): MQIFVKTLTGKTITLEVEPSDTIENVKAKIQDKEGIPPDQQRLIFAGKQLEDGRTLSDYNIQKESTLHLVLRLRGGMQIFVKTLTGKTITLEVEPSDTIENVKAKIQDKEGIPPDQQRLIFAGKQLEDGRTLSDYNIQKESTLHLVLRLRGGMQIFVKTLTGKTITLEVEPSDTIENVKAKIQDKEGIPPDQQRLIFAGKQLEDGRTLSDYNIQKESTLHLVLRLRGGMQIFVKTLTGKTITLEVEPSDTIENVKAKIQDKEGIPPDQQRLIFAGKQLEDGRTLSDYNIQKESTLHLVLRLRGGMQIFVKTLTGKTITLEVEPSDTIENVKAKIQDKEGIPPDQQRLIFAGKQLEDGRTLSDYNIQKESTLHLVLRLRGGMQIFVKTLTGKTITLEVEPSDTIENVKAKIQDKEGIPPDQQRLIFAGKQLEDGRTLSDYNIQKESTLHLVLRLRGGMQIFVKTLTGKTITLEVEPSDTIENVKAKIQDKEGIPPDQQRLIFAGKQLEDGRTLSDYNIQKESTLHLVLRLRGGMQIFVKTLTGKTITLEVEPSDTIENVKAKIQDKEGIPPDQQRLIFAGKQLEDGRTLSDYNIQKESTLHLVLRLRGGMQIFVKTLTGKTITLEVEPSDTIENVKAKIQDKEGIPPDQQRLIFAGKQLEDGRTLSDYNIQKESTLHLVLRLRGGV

Substance: 26S proteasome purified from rabbit muscle (complex)
- fold binding relative to K11 chains (K11-polyUb cyB1-NT^K64): 4.5 fold
